Measured values from patent US20090042993.

Assays:
[1] = molecular target: BACE1Ala (BACE1 with the seven acetylated lysine residues mutated to alanine), P56817
[2] = molecular target: BACE1-myc (myc-tagged at the C-terminus version of BACE1), P56817
[3] = molecular target: BACE1 (β-site APP cleaving enzyme 1), native form BACE1WT, P56817
Sequence of BACE1 (β-site APP cleaving enzyme 1), native form BACE1WT, P56817 (P56817 46-501): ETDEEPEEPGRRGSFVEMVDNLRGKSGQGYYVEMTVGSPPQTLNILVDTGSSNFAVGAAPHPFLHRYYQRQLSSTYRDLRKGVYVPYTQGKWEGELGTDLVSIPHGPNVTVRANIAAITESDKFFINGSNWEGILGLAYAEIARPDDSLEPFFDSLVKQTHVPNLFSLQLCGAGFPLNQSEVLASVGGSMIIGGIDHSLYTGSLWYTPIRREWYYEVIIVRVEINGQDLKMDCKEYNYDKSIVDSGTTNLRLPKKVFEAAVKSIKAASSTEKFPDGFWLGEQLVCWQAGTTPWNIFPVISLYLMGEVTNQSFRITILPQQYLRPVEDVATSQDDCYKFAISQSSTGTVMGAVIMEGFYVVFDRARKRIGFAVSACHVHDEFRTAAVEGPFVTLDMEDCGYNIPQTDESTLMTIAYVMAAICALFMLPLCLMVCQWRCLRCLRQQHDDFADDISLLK

Sequence of BACE1Ala (BACE1 with the seven acetylated lysine residues mutated to alanine), P56817 (P56817 other isoform, or with tags, fused parts or gaps, change not shown): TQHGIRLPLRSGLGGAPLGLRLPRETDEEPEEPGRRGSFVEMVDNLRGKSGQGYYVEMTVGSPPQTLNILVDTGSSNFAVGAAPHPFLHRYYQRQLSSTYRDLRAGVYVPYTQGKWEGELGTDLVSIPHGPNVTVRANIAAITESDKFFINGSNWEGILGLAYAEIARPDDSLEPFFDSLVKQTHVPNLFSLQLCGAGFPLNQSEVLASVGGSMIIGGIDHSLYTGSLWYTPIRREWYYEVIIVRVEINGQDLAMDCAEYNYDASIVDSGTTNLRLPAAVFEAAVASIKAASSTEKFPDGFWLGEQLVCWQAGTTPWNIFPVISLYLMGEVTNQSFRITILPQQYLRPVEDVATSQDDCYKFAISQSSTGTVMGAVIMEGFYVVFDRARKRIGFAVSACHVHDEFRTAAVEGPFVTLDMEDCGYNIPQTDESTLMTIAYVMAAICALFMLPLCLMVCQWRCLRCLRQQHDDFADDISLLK
Sequence of BACE1-myc (myc-tagged at the C-terminus version of BACE1), P56817 (P56817 46-501): as the sequence (P56817 46-501) above

B1: purified recombinant HAT fragment of p300 (histone acetyl transferase domain of recombinant CBP/p300) (protein)
chain: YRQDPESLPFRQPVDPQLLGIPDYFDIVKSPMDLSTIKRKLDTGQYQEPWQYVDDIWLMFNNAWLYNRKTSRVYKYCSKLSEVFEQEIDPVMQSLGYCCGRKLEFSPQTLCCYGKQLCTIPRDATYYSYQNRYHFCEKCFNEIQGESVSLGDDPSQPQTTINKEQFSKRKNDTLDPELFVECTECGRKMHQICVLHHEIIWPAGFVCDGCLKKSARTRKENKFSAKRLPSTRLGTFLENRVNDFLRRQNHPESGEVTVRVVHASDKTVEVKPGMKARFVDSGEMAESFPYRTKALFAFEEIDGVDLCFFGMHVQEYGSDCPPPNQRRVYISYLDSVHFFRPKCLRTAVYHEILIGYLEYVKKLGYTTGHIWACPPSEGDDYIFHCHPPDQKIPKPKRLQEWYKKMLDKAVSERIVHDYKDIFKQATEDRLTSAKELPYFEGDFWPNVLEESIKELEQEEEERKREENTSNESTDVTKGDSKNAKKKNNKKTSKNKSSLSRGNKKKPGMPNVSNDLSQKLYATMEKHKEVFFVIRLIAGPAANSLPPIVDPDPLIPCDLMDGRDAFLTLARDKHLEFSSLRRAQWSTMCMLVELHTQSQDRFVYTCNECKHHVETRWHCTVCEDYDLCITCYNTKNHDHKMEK
Question: How did the “in vitro acetylation ([3H]Acetyl-CoA incorporation into BACE1, scintillation counting)” value (“in vitro acetylation” for short) [1] turn out when B1 was run?
Answer: The value was “but not BACE1Ala”.

Question: What about the “in vitro acetylation” value [2] of the same protein?
Answer: The value was “BACE1 can be acetylated in vitro, provided that is incubated in the presence of an enzymatically active acetyltransferase”.

Question: What about the “in vitro acetylation” value [3] of the same protein?
Answer: Its value is “resulted in acetylation of BACE1WT”.
